According to US20220288216A1 (STARPHARMA, published 2022):

Tests used:
[1] = molecular target: T1, HER2 (human epidermal growth factor receptor 2) on cells (human, UniProt P04626 23-1255); experiment: flow cytometry (Cy5), MDA-MB-231/HER2 cells, 3.33 nM, 37 C, 24 h
T1 construct: whole, on cells; One molecule for HER2 on all HER2-positive human cell lines; also called ERBB2; HER2 WT

[2] = molecular target: T1, HER2 (human epidermal growth factor …); experiment: flow cytometry (Cy5), SKOV-3 cells, 3.33 nM, 37 C, 24 h
[3] = molecular target: T1, HER2 (human epidermal growth factor …); experiment: flow cytometry (Cy5), MDA-MB-231/HER2 cells, 0.5 h

cellular association value (legend says percent; value exceeds 100, unit unclear) [3] | Binder | other results
 | Nanobody-PEG2-TCO-MePhTz-PEG4-PEG24-CO[N(PN)2][Lys]8[(α-NH-Cy5)1(α-NH-Glu-VC-PAB-MMAE)7(ε-NH-COPEG1100)8], Compound 41 (VHH, C-terminal unnatural amino acid (# in the printed sequence; p-azido-phenylalanine) clicked to DBCO-PEG12-TCO and through it to the tetrazine G3 lysine dendrimer carrying Cy5, Glu-VC-PAB-MMAE and PEG1100, Anti-HER2 nanobody 2D3 conjugated to a G3 dendrimer; also called compound 41 (targeted); targeted dendrimer) VHH: EVQLVESGGSLVQPGGSLRLSCAASGFTFDDYAMSWVRQVPGKGLEWVSSINWSGTHTDYADSVKGRFTISRNNANNTLYLQMNSLKSEDTAVYYCAKNWRDAGTTWFEKSGSAGQGTQVTVSS | fold fluorescence against compound 36 (untargeted control) [1]: ~9 fold; fold fluorescence against compound 36 (untargeted control) [2]: ~16 fold
190 | BHA[Lys]4[((α-NH-COPEG24NH-COPEG4(PhMeTz) TCO-PEG3NH-COPEG24NH-Glu-DBCO N3-Nanobody)1(α-Lys(α-NHCy5)(ε-NHDFO))1(α-NH2)2)(ε-NH-COPEG1000)4, G2, Compound 86 (VHH, unnatural amino acid (#; p-azido-phenylalanine) clicked to DBCO-Glu-NHPEG24CO-NHPEG3-TCO and through it to the tetrazine G2 BHA-lysine dendrimer carrying Cy5, DFO and PEG1000, Single-nanobody G2 conjugate; also called BHA-G2-PEG1000 + NB) VHH: EVQLVESGGSLVQPGGSLRLSCAASGFTFDDYAMSWVRQVPGKGLEWVSSINWSGTHTDYADSVKGRFTISRNNANNTLYLQMNSLKSEDTAVYYCAKNWRDAGTTWFEKSGSAGQGTQVTVSS | 
157 | BHA[Lys]16[((α-NH-COPEG24NH-COPEG4(PhMeTz) TCO-PEG3NH-COPEG24NH-Glu-DBCO/N3-Nanobody)1(α-Lys(α-NHCy5)(ε-NHDFO))1(α-NH2)14(ε-NH-COPEG1000)16], G4, Compound 90 (VHH, unnatural amino acid (#; p-azido-phenylalanine) clicked to DBCO-Glu-NHPEG24CO-NHPEG3-TCO and through it to the tetrazine G4 BHA-lysine dendrimer carrying Cy5, DFO and PEG1000, Single-nanobody G4 conjugate; also called single 2D3-dendrimer conjugate; MFI Single) VHH: EVQLVESGGSLVQPGGSLRLSCAASGFTFDDYAMSWVRQVPGKGLEWVSSINWSGTHTDYADSVKGRFTISRNNANNTLYLQMNSLKSEDTAVYYCAKNWRDAGTTWFEKSGSAGQGTQVTVSS | 
 | BHA[Lys]32[((α-NH-COPEG24NH-COPEG4(PhMeTz) TCO-PEG3NH-COPEG24NH-Glu-DBCO/N3-Nanobody)1-4(α-NHCy5)1(α-NH-COPEG9-Val-Ala-PAB-P-Trigger-NMeCO-CTX)22) (α-NH2)5-8 … (VHH, unnatural amino acid (# in the printed sequence; p-azido-phenylalanine) after the last nanobody residue clicked to DBCO-Glu-NHPEG24CO-NHPEG3-TCO and through it to the tetrazine G5 BHA-lysine dendrimer carrying Cy5, cabazitaxel and PEG1100, 1-4 nanobodies per dendrimer as printed; also called compound 78 (targeted); 78 (2D3, G5, PEG1000, CTX)) VHH: EVQLVESGGSLVQPGGSLRLSCAASGFTFDDYAMSWVRQVPGKGLEWVSSINWSGTHTDYADSVKGRFTISRNNANNTLYLQMNSLKSEDTAVYYCAKNWRDAGTTWFEKSGSAGQGTQVTVSS | fold fluorescence against compound 70 (untargeted control) [1]: ~340 fold; fold fluorescence against compound 70 (untargeted control) [2]: ~160 fold
165 | BHA[Lys]32[((α-NH-COPEG24NH-COPEG4(PhMeTz) TCO-PEG3NH-COPEG24NH-Glu-DBCO/N3-Nanobody)1(α-Lys(α-NHCy5)(ε-NHDFO))1(α-NH2)30(ε-NH-COPEG1100)32], G5, Compound 92 (VHH, unnatural amino acid (#; p-azido-phenylalanine) clicked to DBCO-Glu-NHPEG24CO-NHPEG3-TCO and through it to the tetrazine G5 BHA-lysine dendrimer carrying Cy5, DFO and PEG, Single-nanobody G5 conjugate; also called BHA-G5-PEG1000 + NB) VHH: EVQLVESGGSLVQPGGSLRLSCAASGFTFDDYAMSWVRQVPGKGLEWVSSINWSGTHTDYADSVKGRFTISRNNANNTLYLQMNSLKSEDTAVYYCAKNWRDAGTTWFEKSGSAGQGTQVTVSS | 
218 | BHA[Lys]8[((α-NH-COPEG24NH-COPEG4(PhMeTz) TCO-PEG3NH-COPEG24NH-Glu-DBCO/N3-Nanobody)1(α-Lys(α-NHCy5)(ε-NHDFO))1(α-NH2)6)(ε-NH-COPEG1000)8], G3, Compound 89 (VHH, unnatural amino acid (#; p-azido-phenylalanine) clicked to DBCO-Glu-NHPEG24CO-NHPEG3-TCO and through it to the tetrazine G3 BHA-lysine dendrimer carrying Cy5, DFO and PEG1000, Single-nanobody G3 conjugate; also called BHA-G3-PEG1000 + NB) VHH: EVQLVESGGSLVQPGGSLRLSCAASGFTFDDYAMSWVRQVPGKGLEWVSSINWSGTHTDYADSVKGRFTISRNNANNTLYLQMNSLKSEDTAVYYCAKNWRDAGTTWFEKSGSAGQGTQVTVSS | 
